# From paper PMC5816542, “In vitro and in vivo characterization of three Cellvibrio japonicus glycoside hydrolase family 5 members reveals potent xyloglucan backbone-cleaving functions” (Biotechnology for Biofuels, 2018)
# B1: CjGH5F (Cellvibrio japonicus Ueda107) (protein)
# chain: FSVTVGGSSSGTMRNLTSVQLARLMGAGWNLGNSLEAIGSETAWGNPATTQALINAVKAAGFKTIRIPVSWSQYADANYNISSSWMARVKQVVDYAKNAGFYVIINIHWDGGWMQPTYANQAAVNSRLTKLWTQIANNFKNYDDYLLFAGTNEVMVDGDYGTPTYEYYTVQNSFNQTFVNTVRATGGNNAVRHLVVQGFNTNIDHTISFVSIPSDSASNRLMMEVHYYDPYNFTLNASSNIWQWGANATNSSATETWANETYVNTQFQRMKTRFIDNGVAVILGEFGAISRTNIPGAESYRTYWNQYITRAAYTRGLVPIYWDNGYTANNGMGLFDRYNGAQVYPNLISTIINAAQ
# notes: C-terminal GH5_4 catalytic module, signal peptide and FN3 domain removed; N-terminal His6 (pET28a), E. coli
# B2: CjGH5E (Cellvibrio japonicus Ueda107) (protein)
# chain: SSSGSSLTSVELTRLMGVGWNVGNTLDAIGGETNWGNPLITQQLISSVKAAGFKTLRVPVAWSKFTNAATFTIDPAWLNRVEQVVNYALNEDMYVMINIHWDGGWMQPTYAQQAYVNNRLSIMWTQIANHFRNYGDKLLFAGTNEVMVEGDYGTPTVEYYTVQNSFNQTFVDTVRATGGNNANRFLVVQGFNTNIDHTVNFARIPTDSASNRLLMEVHYYDPYNFTLNTSSNITQWGAIATNPAVTETWANEAYADAQFEKMRTNFINRGVGVILGEYGVVSRLNVSGHETFRVYYNQYITKSAYQRGLVPVYWDNGYSGDGGFALFDRNSGNQLYPDIIRAIVNATF
# notes: GH5_4 catalytic module, signal peptide and CBM2-CBM10 removed; N-terminal His6 (pMCSG53), E. coli
# B3: CjGH5D (Cellvibrio japonicus Ueda107) (protein)
# chain: GLYPSYNTSPAAPDSTGMQSTAVQLAGKIRLGWNIGNTMEAIGGETAWGNPMVSNELLKLVKDSGFDAVRIPVAWDQYANQESAEISAAWLNRVKQVVQMAIDNELYVLINIHWDGGWLENNITPAKKDENNAKQKAFWEQIATHLRDFDEHLLFAGTNEPNAENAEQMDVLNSYLQTFVDAVRSTGGKNAYRVLVLQGPVTDIEKTNELWTHMPADTATDRLMAEVHFYTPYNFALMRQDESWGKQFYYWGEGFLSTTDTERNPTWGEEATIDQLFDLMKTKFVDQGIPVVLGEFSAMRRTNLTGDALTLHLAGRAYYHKYVTQQALARGLLPFYWDNGGNDNFSSGIFNRQQNTVFDQQVLDALLEGAGAQ
# notes: GH5_4 catalytic module, lipoprotein signal peptide and serine-rich linker removed; N-terminal His6 (pET28a), E. coli; borders 96-468 are those of the crystal model
# What was measured:
# [1] = molecular target: T1, CjGH5D (Cellvibrio japonicus, UniProt B3PD52); test: time-dependent inactivation, residual XXXG-CNP hydrolysis at […] nm; assay type: biochemical; conditions: covalent; irreversible active-site affinity label; 20 mM phosphate pH 7.5, 40 °C, 0.1 mg/mL BSA; XXXG-CNP substrate
# T1 construct: gene cel5D; GH5_4 catalytic module, lipoprotein signal peptide and serine-rich linker removed; N-terminal His6 (pET28a), E. coli; borders 96-468 are those of the crystal model
# [2] = substrate: O=[N+]([O-])c1ccc(O[C@@H]2O[C@H](CO)[C@@H](O[C@@H]3O[C@H](CO[C@H]4OC[C@@H](O)[C@H](O)[C@H]4O)[C@@H](O[C@@H]4O[C@H](CO[C@H]5OC[C@@H](O)[C@H](O)[C@H]5O)[C@@H](O[C@@H]5O[C@H](CO[C@H]6OC[C@@H](O)[C@H](O)[C@H]6O)[C@@H](O)[C@H](O)[C@H]5O)[C@H](O)[C@H]4O)[C@H](O)[C@H]3O)[C@H](O)[C@H]2O)c(Cl)c1; test: purified protein; assay type: biochemical, Cellvibrio japonicus
# [3] = substrate: O=[N+]([O-])c1ccc(O[C@@H]2O[C@H](CO)[C@@H](O[C@@H]3O[C@H](CO[C@H]4OC[C@@H](O)[C@H](O)[C@H]4O[C@@H]4O[C@H](CO)[C@H](O)[C@H](O)[C@H]4O)[C@@H](O[C@@H]4O[C@H](CO[C@H]5OC[C@@H](O)[C@H](O)[C@H]5O[C@@H]5O[C@H](CO)[C@H](O)[C@H](O)[C@H]5O)[C@@H](O[C@@H]5O[C@H](CO[C@H]6OC[C@@H](O)[C@H](O)[C@H]6O)[C@@H](O)[C@H](O)[C@H]5O)[C@H](O)[C@H]4O)[C@H](O)[C@H]3O)[C@H](O)[C@H]2O)c(Cl)c1; test: purified protein; assay type: biochemical, Cellvibrio japonicus
# [4] = substrate: O=[N+]([O-])c1ccc(O[C@@H]2O[C@H](CO)[C@@H](O[C@@H]3O[C@H](CO)[C@@H](O[C@@H]4O[C@H](CO)[C@@H](O)[C@H](O)[C@H]4O)[C@H](O)[C@H]3O)[C@H](O)[C@H]2O)c(Cl)c1; test: purified protein; assay type: biochemical, Cellvibrio japonicus; conditions: 50 mM phosphate pH 7.5, 55 °C
# [5] = substrate: O=[N+]([O-])c1ccc(O[C@@H]2O[C@H](CO)[C@@H](O[C@@H]3O[C@H](CO)[C@@H](O[C@@H]4O[C@H](CO)[C@@H](O[C@@H]5O[C@H](CO)[C@@H](O)[C@H](O)[C@H]5O)[C@H](O)[C@H]4O)[C@H](O)[C@H]3O)[C@H](O)[C@H]2O)c(Cl)c1; test: purified protein; assay type: biochemical, Cellvibrio japonicus; conditions: 50 mM phosphate pH 7.5, 55 °C
molecule,measurement,setting,value
O=C(CBr)N[C@@H]1O[C@H](CO)[C@@H](O[C@@H]2O[C@H](CO[C@H]3OC[C@@H](O)[C@H](O)[C@H]3O)[C@@H](O[C@@H]3O[C@H](CO[C@H]4OC[C@@H](O)[C@H](O)[C@H]4O)[C@@H](O[C@@H]4O[C@H](CO[C@H]5OC[C@@H](O)[C@H](O)[C@H]5O)[C@@H](O)[C@H](O)[C@H]4O)[C@H](O)[C@H]3O)[C@H](O)[C@H]2O)[C@H](O)[C@H]1O [XXXG-NHCOCH2Br],KI (inactivation),[1],1780 ± 170 µM
B1,Km,"[2]; 50 mM phosphate pH 7.0, 50 °C",70 ± 10 µM
same,kcat,"[2]; 50 mM phosphate pH 7.0, 50 °C",2.82 ± 0.0667 s⁻¹
same,kcat/Km,"[2]; 50 mM phosphate pH 7.0, 50 °C",40200 ± 5830 M⁻¹ s⁻¹
same,Km,"[3]; 50 mM phosphate pH 7.0, 50 °C",30 ± 2 µM
same,kcat,"[3]; 50 mM phosphate pH 7.0, 50 °C",6.55 ± 0.133 s⁻¹
same,kcat/Km,"[3]; 50 mM phosphate pH 7.0, 50 °C",218000 ± 15000 M⁻¹ s⁻¹
B2,Km,[4],11800 ± 600 µM
same,kcat,[4],3.18 ± 0.117 s⁻¹
same,kcat/Km,[4],270 ± 16.7 M⁻¹ s⁻¹
same,Km,[5],5020 ± 350 µM
same,kcat,[5],3 ± 0.117 s⁻¹
same,kcat/Km,[5],598 ± 46.7 M⁻¹ s⁻¹
same,Km,"[2]; 50 mM phosphate pH 7.5, 55 °C",10 ± 1 µM
same,kcat,"[2]; 50 mM phosphate pH 7.5, 55 °C",4.23 ± 0.0667 s⁻¹
same,kcat/Km,"[2]; 50 mM phosphate pH 7.5, 55 °C",423000 ± 43300 M⁻¹ s⁻¹
same,Km,"[3]; 50 mM phosphate pH 7.5, 55 °C",10 ± 1 µM
same,kcat,"[3]; 50 mM phosphate pH 7.5, 55 °C",5.53 ± 0.15 s⁻¹
same,kcat/Km,"[3]; 50 mM phosphate pH 7.5, 55 °C",553000 ± 56700 M⁻¹ s⁻¹
B3,Km,"[2]; 50 mM phosphate pH 7.5, 50 °C",810 ± 100 µM
same,kcat,"[2]; 50 mM phosphate pH 7.5, 50 °C",4.68 ± 0.2 s⁻¹
same,kcat/Km,"[2]; 50 mM phosphate pH 7.5, 50 °C",5780 ± 750 M⁻¹ s⁻¹
same,Km,"[3]; 50 mM phosphate pH 7.5, 50 °C",180 ± 20 µM
same,kcat,"[3]; 50 mM phosphate pH 7.5, 50 °C",2.7 ± 0.0667 s⁻¹
same,kcat/Km,"[3]; 50 mM phosphate pH 7.5, 50 °C",15000 ± 1720 M⁻¹ s⁻¹
